In one data set the test system is xenograft tumor. The data set can be described thus: μPET imaging with 68Ga-labelled Bicycle peptides in xenograft mice. The conditions noted are these: 150 pmoles. The format is in vivo. Here is the method: General method for μPET imaging: the mice were anaesthetized (2% sevoflurane, Abbott), placed into the small animal PET scanner (Inveon PET, Siemens) and injected with 68Ga-labeled Bicycle peptides. A 20 min transmission scan, a 50 min dynamic scan and a static scan from 100 to 120 min p.i. were performed. Images were reconstructed iteratively using the space alternating generalized expectation maximization method (SAGE, 16 subsets, 4 iterations) applying median root prior correction and were converted to standardized uptake value (SUV) images. Quantitation was done using a ROI (region of interest) technique and expressed as SUVmean.
General method for radiolabeling with Ga-68: ^68Ga (half-life 68 min; β^+ 89%; Eβ+max. 1.9 MeV) was obtained from a in house ^68Ge/^68Ga generator based on pyrogallol resin support. 1 GBq ^68Ga was eluted using 5.5 M HCl. The activity was trapped on a small anion-exchanger cartridge (AG1X8, Biorad, Richmond, CA, USA) as [^68Ga]GaCl4^−. The radiogallium was eluted from the cartridge in a final volume of 300 μL ultrapure water (Merck, Darmstadt, Germany) as [^68Ga]GaCl3.
1 nmol Bicycle peptide in 1 μL DMSO was added to a mixture of 50 μL 0.05 M HEPES, 0.1% Tween-20, and 80 μL [^68Ga]Ga^3+ eluate (˜200 MBq). The pH of the labelling solution was adjusted to 4.2 using 30% NaOH. The reaction mixture was incubated at 98° C. for 10 minutes. The radiochemical yield (RCY) was determined using reversed-phase high performance liquid chromatography (RP-HPLC; Chromolith RP-18e, 100×4.6 mm; Merck, Darmstadt, Germany). The analytical HPLC run was performed using a linear A-B gradient (0% B to 100% B in 6 min) at a flow rate of 4 mL/min. Solvent A consisted of 0.1% aqueous TFA and solvent B was 0.1% TFA in CH3CN.
For μPET imaging, the labelling reaction mixture was diluted in injection buffer (0.25 M Na-Acetate 0.05% Tween-20 pH 7) by a factor of 6 to obtain 150 pmoles in 100 μL injection buffer. The anaesthetized mouse (2% sevoflurane, Abbott) was injected with 100 μL of ^68Ga-labelled I-23 (˜25 MBq) and placed in a small animal PET scanner (Inveon PET, Siemens). The imaging was performed 60 min post-injection and included a 15 min transmission scan before injection and a 60 min emission scan post-injection. Scans from μPET imaging were reconstructed iteratively using the space alternating generalized expectation maximization method (SAGE, 16 subsets, 4 iterations) applying median root prior correction and were converted to standardized uptake value (SUV) images. Quantitation was accomplished using an ROI (region of interest) technique and expressed as SUVmean.
The radiolabelling with Ga-68 was done as described before. […] Quantitation was accomplished using an ROI (region of interest) technique and expressed as SUVmean. […]

The next data set addresses integrin αvβ3 (Homo sapiens, UniProt P05106+P06756). The conditions noted are these: bicyclic peptide formed with TBMB; as described in UK provisional application P2122; read-out: Ki of αvβ3 binder; cited from earlier work.
In a further data set the target is human CAIX (Homo sapiens, UniProt Q16790). The note with it: bicyclic peptide formed with TBMB; as described in UK provisional application P2120; read-out: Kd of CAIX binder; cited from earlier work.
Another data set addresses MT1-MMP hemopexin domain (Homo sapiens, UniProt P50281). The note with it: bicyclic peptide formed with TBMB; as described in WO 2016/067035; read-out: Kd of MT1-MMP binder; cited from earlier work.

*1 amine or outer side, *2 acyl side, *3 side chain or, on linkers, in order; H or OH if unused. Where a SMILES comes first, the peptide text is derived from it. Bridges are numbered along the chain shown (N, C = ends). Where no end group is shown, it is not given here. [ ]: non-standard residue; d: D form. The star is where a group is joined. DOTA = O=C(O)CN1CCN(CC(=O)O)CCN(CC(=O)*)CCN(CC(=O)O)CC1; 1Nal = N[C@@H](Cc1cccc2ccccc12)C(=O)O; TBMB = c1c(C[*:1])cc(C[*:3])cc1C[*:2]; hArg = N=C(N)NCCCC[C@H](N)C(=O)O; Tle = CC(C)(C)[C@H](N)C(=O)O; Aib = CC(C)(N)C(=O)O; βAla = NCCC(=O)O; Sar = CNCC(=O)O

Sequence of integrin αvβ3 (P06756 31-889 limits assumed): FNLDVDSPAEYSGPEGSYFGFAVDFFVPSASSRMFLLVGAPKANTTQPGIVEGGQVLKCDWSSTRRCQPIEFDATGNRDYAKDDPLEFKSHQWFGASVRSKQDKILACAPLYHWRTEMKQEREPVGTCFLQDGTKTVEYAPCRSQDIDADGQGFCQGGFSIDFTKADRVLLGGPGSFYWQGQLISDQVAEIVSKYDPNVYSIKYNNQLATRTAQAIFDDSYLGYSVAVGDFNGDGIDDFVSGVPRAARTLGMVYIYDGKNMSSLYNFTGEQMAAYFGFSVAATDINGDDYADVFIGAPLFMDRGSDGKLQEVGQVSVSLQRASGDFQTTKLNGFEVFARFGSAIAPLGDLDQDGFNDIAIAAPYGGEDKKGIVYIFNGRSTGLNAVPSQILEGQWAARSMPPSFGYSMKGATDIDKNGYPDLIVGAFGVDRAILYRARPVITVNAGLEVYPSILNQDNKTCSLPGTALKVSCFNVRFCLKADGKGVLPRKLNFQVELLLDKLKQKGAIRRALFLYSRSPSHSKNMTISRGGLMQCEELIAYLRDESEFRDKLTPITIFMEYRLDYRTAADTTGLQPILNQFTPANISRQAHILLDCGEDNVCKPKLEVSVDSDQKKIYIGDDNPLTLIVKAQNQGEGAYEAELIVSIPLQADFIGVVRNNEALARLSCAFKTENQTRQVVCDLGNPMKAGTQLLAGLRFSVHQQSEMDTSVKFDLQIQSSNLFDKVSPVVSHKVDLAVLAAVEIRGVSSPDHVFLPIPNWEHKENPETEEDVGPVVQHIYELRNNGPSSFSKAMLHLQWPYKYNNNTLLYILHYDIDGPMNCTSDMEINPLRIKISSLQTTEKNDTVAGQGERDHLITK
Sequence of integrin αvβ3 (P06756 891-1048 partner limits assumed): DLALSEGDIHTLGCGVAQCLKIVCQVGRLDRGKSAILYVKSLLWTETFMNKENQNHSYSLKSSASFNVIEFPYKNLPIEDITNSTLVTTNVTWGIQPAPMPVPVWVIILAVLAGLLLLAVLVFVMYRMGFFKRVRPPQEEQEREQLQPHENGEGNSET
Sequence of integrin αvβ3 (P05106 27-788): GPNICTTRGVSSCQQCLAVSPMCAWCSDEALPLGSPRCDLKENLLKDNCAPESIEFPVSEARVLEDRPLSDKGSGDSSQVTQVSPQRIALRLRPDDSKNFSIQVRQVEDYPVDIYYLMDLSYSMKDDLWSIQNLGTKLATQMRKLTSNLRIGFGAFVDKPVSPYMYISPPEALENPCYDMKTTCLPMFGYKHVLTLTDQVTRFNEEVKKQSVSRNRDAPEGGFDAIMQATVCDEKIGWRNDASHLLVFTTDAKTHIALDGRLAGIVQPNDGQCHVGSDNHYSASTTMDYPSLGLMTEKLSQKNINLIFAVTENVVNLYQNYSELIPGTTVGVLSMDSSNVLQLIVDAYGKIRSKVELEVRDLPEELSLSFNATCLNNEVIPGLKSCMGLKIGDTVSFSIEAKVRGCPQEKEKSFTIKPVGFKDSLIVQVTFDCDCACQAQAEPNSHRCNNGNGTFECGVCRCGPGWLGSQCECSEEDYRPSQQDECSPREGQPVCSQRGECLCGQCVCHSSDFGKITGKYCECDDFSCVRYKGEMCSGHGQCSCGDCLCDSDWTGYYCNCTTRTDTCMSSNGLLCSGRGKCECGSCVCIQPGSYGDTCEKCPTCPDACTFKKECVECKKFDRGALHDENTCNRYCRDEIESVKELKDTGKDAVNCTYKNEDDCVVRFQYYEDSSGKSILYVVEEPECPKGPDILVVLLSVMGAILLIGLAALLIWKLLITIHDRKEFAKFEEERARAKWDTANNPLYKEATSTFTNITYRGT

As for `CC(C)[C@H](NC(=O)[C@@H](CC(=O)O)NC(=O)[C@H](Cc1c[nH]cn1)NC(=O)CN(C)C(=O)CN(C)C(=O)CN(C)C(=O)CN(C)C(=O)CN(C)C(=O)CN(C)C(=O)CN(C)C(=O)CN(C)C(=O)CN(C)C(=O)CN(C)C(=O)CCNC(=O)CN1CCN(CC(=O)O)CCN(CC(=O)O)CCN(CC(=O)O)CC1)C(=O)N1CCC[C@H]1C(=O)N[C@H]1CSCc2cc3cc(c2)CSC[C@H](NC(=O)[C@H](Cc2cccc4ccccc24)NC(=O)[C@H](Cc2ccccc2)NC(=O)C(C)(C)NC(=O)CNC(=O)[C@H](Cc2cccc4ccccc24)NC(=O)C(C)(C)NC1=O)C(=O)N1CCC[C@H]1C(=O)N[C@@H](C(C)(C)C)C(=O)N[C@@H](CC(N)=O)C(=O)N[C@@H](CCCCNC(=N)N)C(=O)N1CCC[C@H]1C(=O)N[C@H](CC(=O)O)C(=O)N[C@H](C(N)=O)CSC3` [I-15] ({DOTA-βAla}-[Sar][Sar][Sar][Sar][Sar][Sar][Sar][Sar][Sar][Sar]H[dD]VPC[Aib][1Nal]G[Aib]F[1Nal]CP[Tle]N[hArg]P[dD]C-NH2; linker 15-22-29 via TBMB), in the data set with xenograft tumor, the “liver uptake in PET imaging” value is “clearly reduced liver uptake” and the “tumor signal in PET imaging” value was “extremely high”.

For “Ac-CIL(HArg)PNCDLDGRCA-Sar6-(D-K) [compound 5, "peptide 5"]”, at integrin αvβ3, the Ki is 15 nM.

For “βA1a-Sar10-A-CTECWVDGWVPC [compound 3, "peptide 3"]”, the Kd at human CAIX is 10 nM.

Take “βAla-Sar10-A-C(D-Ala)NE(1Nal)(D-Ala)CEDFYD(tBuGLy)C ([βAla][Sar][Sar][Sar][Sar][Sar][Sar][Sar][Sar][Sar][Sar]AC[dA]NE[1Nal][dA]CEDFYD[Tle]C; linker 13-19-26 via TBMB) [17-69-07-N241, "peptide 1 (17-69-07-N241)"]”: the Kd with MT1-MMP hemopexin domain is 1.2 nM.

(Values after US12552837B2, “Bicyclic peptide ligands with detectable moieties and uses thereof” (BicycleRD Limited, priority 2017, dated 2026).)
